Reference: PMC10721843

Biological target: T1, Human full-length TOP2B (topoisomerase II beta) (human), Q02880
T1 chain: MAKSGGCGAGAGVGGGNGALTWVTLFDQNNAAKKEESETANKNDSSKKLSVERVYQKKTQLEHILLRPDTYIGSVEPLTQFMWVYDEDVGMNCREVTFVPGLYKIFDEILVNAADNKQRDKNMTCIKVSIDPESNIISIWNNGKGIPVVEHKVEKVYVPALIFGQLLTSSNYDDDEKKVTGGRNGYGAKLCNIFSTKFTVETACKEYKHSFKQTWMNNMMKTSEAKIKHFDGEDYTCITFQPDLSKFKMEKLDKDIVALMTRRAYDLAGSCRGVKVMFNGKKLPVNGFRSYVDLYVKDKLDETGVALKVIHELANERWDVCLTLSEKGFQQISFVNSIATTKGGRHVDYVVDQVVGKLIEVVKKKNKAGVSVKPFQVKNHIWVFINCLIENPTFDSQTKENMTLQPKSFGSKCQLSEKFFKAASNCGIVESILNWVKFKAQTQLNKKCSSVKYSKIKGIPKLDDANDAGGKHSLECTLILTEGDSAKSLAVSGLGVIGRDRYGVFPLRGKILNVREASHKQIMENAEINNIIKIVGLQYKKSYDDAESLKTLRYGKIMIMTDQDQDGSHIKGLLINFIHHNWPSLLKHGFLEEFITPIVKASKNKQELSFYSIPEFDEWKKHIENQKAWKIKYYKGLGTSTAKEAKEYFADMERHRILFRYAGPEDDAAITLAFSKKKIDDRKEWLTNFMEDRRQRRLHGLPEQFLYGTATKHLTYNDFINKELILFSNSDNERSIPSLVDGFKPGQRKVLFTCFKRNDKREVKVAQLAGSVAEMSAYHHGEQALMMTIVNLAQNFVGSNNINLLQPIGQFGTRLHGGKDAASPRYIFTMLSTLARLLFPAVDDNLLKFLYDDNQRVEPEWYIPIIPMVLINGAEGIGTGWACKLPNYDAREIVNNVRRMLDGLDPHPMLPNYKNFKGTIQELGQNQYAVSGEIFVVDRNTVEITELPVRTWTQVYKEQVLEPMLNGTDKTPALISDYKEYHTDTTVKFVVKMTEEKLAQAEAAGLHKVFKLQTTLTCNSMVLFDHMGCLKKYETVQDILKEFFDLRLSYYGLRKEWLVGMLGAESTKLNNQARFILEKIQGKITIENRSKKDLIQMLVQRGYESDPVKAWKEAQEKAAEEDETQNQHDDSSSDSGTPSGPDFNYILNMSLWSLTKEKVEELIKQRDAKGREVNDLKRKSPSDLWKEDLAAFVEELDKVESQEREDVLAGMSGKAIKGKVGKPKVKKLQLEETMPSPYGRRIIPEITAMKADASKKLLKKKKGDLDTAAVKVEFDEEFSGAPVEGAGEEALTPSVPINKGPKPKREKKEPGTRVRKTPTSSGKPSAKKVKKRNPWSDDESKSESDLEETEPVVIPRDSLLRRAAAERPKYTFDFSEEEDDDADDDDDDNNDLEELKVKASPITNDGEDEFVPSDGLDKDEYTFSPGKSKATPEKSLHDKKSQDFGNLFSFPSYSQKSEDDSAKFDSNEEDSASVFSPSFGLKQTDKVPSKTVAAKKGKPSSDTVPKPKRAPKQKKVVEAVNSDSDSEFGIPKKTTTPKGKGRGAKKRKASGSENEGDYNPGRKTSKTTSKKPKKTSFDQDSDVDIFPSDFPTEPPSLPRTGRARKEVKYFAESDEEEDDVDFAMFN
Assay: cryo-EM structure; 8.3 uM TOP2B, 16.7 uM EGR1 TSS dsDNA (50 bp, -30 to +20) and 1.67 uM etoposide in 20 mM HEPES pH 8.0, 5 mM KCl, 5 mM MgCl2, 0.5 mM ATP; C2 symmetry imposed in 3D refinement (also reconstructed without it)
Details: remark: other sources report otherwise

B1: Human full-length TOP2B (topoisomerase II beta), Q02880 1-1626 (enzyme)
chain: T1 chain
B1 gave a stoichiometry N of 2.
